{"source": "paper PMC4437517", "about": "(Proteins, 2008)", "proteins": {"B1": {"name": "protein product of the Arabidopsis thaliana gene locus At1g05000 (enzyme, UniProt Q9ZVN4 1-215, looked up)", "chain": "SKLVEKTTTTEQDNGEDFCRTIIEVSEVNRNVFQAPGGEADPFRVVSGEELHLIPPLNFSMVDNGIFRSGFPDSANFSFLQTLGLRSIIYLCPEPYPESNLQFLKSNGIRLFQFGIEGNKEPFVNIPDHKIRMALKVLLDEKNHPVLIHCKRGKHRTGCLVGCLRKLQKWCLTSIFDEYQRFAAAKARVSDQRFMEIFDVSSFSHIPMSFSCSIR", "modifications": "selenomethionine-labeled"}}, "key": {"SEC": {"molecular_target": "the molecule itself", "test": "SEC"}, "crystal structure": {"molecular_target": "the molecule itself", "test": "crystal structure"}}, "data": [{"protein": "B1", "values": [{"measurement": "stoichiometry N", "setting": "SEC", "result": 2}, {"measurement": "stoichiometry N", "setting": "crystal structure", "result": 6}]}]}
